Measurements reported in paper PMC2774623 (Biochemistry, 2008).
Where two headings read alike, the source gives them in different places.

B1: wild-type recombinant murine NBD1 (nucleotide binding domain 1 of CFTR, spanning sequence 389−673) (domain or fragment, mouse, UniProt P26361 389-673, looked up)
chain: TTGIIMENVTAFWEEGFGELLEKVQQSNGDRKHSSDENNVSFSHLCLVGNPVLKNINLNIEKGEMLAITGSTGSGKTSLLMLILGELEASEGIIKHSGRVSFCSQFSWIMPGTIKENIIFGVSYDEYRYKSVVKACQLQQDITKFAEQDNTVLGEGGVTLSGGQRARISLARAVYKDADLYLLDSPFGYLDVFTEEQVFESCVCKLMANKTRILVTSKMEHLRKADKILILHQGSSYFYGTFSELQSLRPDFSSKLMGYDTFDQFTEERRSSILTETLRRFSVDD
B2: recombinant β-subunit of human protein kinase CK2 (natural protein)
chain: not shown
B3: wild-type human NBD1 (spanning sequence 389−673) (domain or fragment, UniProt P13569 389-673, looked up)
chain: TTEVVMENVTAFWEEGFGELFEKAKQNNNNRKTSNGDDSLFFSNFSLLGTPVLKDINFKIERGQLLAVAGSTGAGKTSLLMVIMGELEPSEGKIKHSGRISFCSQFSWIMPGTIKENIIFGVSYDEYRYRSVIKACQLEEDISKFAEKDNIVLGEGGITLSGGQRARISLARAVYKDADLYLLDSPFGYLDVLTEKEIFESCVCKLMANKTRILVTSKMEHLKKADKILILHEGSSYFYGTFSELQNLQPDFSSKLMGCDSFDQFSAERRNSILTETLHRFSLEG
B4: ΔF508 mutated recombinant murine NBD1 (spanning sequence 389−673) (domain or fragment, mouse, UniProt P26361 389-673, looked up)
chain: TTGIIMENVTAFWEEGFGELLEKVQQSNGDRKHSSDENNVSFSHLCLVGNPVLKNINLNIEKGEMLAITGSTGSGKTSLLMLILGELEASEGIIKHSGRVSFCSQFSWIMPGTIKENIIGVSYDEYRYKSVVKACQLQQDITKFAEQDNTVLGEGGVTLSGGQRARISLARAVYKDADLYLLDSPFGYLDVFTEEQVFESCVCKLMANKTRILVTSKMEHLRKADKILILHQGSSYFYGTFSELQSLRPDFSSKLMGYDTFDQFTEERRSSILTETLRRFSVDD
B5: CFTR peptide 506−518 ΔF (peptide, UniProt P13569 506-518, looked up)
peptide: IIGVSYDEYRYR

Experiments:
Experiment in all cases: SPR
[1] = molecular target: T1, recombinant α-subunit of human protein kinase CK2 (human, UniProt P68400 1-391)
T1 sequence (P68400 whole entry): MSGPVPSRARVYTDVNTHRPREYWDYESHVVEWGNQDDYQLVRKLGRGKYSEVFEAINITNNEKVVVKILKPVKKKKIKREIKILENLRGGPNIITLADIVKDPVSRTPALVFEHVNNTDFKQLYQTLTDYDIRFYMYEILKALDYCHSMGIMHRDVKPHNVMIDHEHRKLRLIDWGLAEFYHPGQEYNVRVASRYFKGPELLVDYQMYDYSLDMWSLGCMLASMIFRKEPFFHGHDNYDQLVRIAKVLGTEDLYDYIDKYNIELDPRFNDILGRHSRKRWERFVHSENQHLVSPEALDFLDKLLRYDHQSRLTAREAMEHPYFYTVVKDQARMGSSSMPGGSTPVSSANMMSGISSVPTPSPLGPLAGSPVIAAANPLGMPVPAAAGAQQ

[2] = molecular target: T1, recombinant α-subunit of human protein …; remark: listed apart in the source
[3] = molecular target: B3
[4] = molecular target: B4
[5] = molecular target: B1
[6] = molecular target: T1, recombinant α-subunit of human protein …; remark: listed apart in the source

Binder | Kd [1] [nM] | koff [1] [s⁻¹] | kon [1] [M⁻¹ s⁻¹] | binding result [2] | further results
B1 | 2470 | 0.000335 | 135 |  | 
B2 |  |  |  | binds | binding result [3]: binds; binding result [4]: binds; binding result [5]: binds
B3 |  |  |  |  | binding result [6]: binds
B4 | 91.2 | 8.77e-05 | 961 |  | 
B5 |  |  |  | binds | 
